Measured values: the supplement of paper PMC9170038

Test system: MS2 coat protein
Assay: apparent KD of MS2 coat protein; designed switch direction (-1 OFF switch, 1 ON switch): -1; higher = weaker reporter binding
Summary of the method: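 SNAP-549-labelled MS2 coat protein was titrated, doubling from 0.7 or 1.5 nM to 3 µM, over designed RNA switches transcribed on Illumina chips by stalled E. coli RNA polymerase. Runs were done without input, with 200 uM small-molecule ligand, or with an oligonucleotide input. Apparent KD is the per-design median over clusters of curve-fitted normalised fluorescence.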

[1] = Eterna round: R95, input ligand: microRNA oligo, concentration not stated
[2] = input ligand: microRNA oligo, concentration not stated
[3] = Eterna round: R95, input ligand: FMN 200 uM
[4] = Eterna round: R95, input ligand: none

Row | Sequence | apparent KD of MS2 coat protein [1] | apparent KD of MS2 coat protein (input ligand: FMN 200 uM) | apparent KD of MS2 coat protein (input ligand: none) | apparent KD of MS2 coat protein [2] | apparent KD of MS2 coat protein [3] | apparent KD of MS2 coat protein [4]
1 | UAAUUAAGUGUGAGGAUAUGCUGGUCCUUGGAUCAGCAGAAGGCACAUGAGGAUCACCCAUGUAAUAUAUUUAU [JL bmx4 3.11] (puzzle: Brourd's mod of Exclusion 4) | 0.0819 µM | – | – | – | – | –
2 | GGUGAAGCAGGAUAUGUAUCGAUAUACAUGAGGAUCACCCAUGUCAUGUUUGAAUUGCAUAUAGAAGGGCUUCACC [Exclusion 5 (FMN-MS2 slide v.3)] (Eterna round: R97, puzzle: Exclusion 5) | – | 0.0164 µM | 0.0138 µM | – | – | –
3 | ACUGGUGCAGGAUAUACAUGAGGAUCACCCAUGUGAUCAGCAGUCCUCGGACUGCAAUGUAGAAGGGCACCAGU [E3/1-D1] (Eterna round: R97, puzzle: Exclusion 3) | – | 0.105 µM | 0.804 µM | – | – | –
4 | AGUCGAAAGACCCACAUGGACAUGAGGAUCACCCAUGUACAAGCCUUUUGCUCGUCACUAUCGUCAAAAGACGAUAG [Omei Mir Offv1 A2] (Eterna round: R97, puzzle: Sensor, turn-off variant 1) | – | 0.0308 µM | 0.0418 µM | – | – | –
5 | UCGGCGCGAGGAUAUACGUUUGCGCGUUUUCGUUUUCGCGUACAUGAGGAUCACCCAUGUAGAAGGCGCGCCGC [Apr-15 SS2-15] (puzzle: Exclusion 2) | 0.014 µM | – | – | – | – | –
6 | GGUAGAGUGGUAGGAUAUCCGACUGUUUCAGACGGAGAAGGACCACAGUCACUGGGUCCAAAUAUCAUGGAGACCUGAUCUACC [pwkr exNG1 F6.8] (Eterna round: R96, puzzle: Exclusion NG 1) | – | 0.983 µM | 0.634 µM | 0.556 µM | – | –
7 | UGCCUUUGAGGAUAUACAUAGAAAUAGAUUCAUGUAAAACUACAUGAGGAUCACCCAUGUAGAAGGCAAGGGCU [Mat - Exclusion 2 - JL Mod - D52] (Eterna round: R97, puzzle: Exclusion 2) | – | 0.0836 µM | 0.024 µM | – | – | –
8 | AGAUCCUGAGUCAGGAUAUAGAGGCGGUAGCCUGGCUAGAAGGGACAUGAGGAUCACCCAUGUGGGUUCGAGCC [Isonus] (puzzle: Brourd's mod of Exclusion 4) | 0.0167 µM | – | – | – | – | –
9 | UAUUAGCAAGCGAGAUCCCACAUGAGGAUCACCCAUGUGCUCGUCUUAUAAGGUACUGUGACGAGAGUCACGGUACC [Mat - Sensor, turn-off var - Eli Mod - D17] (Eterna round: R97, puzzle: Sensor, turn-off variant 1) | – | 0.0164 µM | 0.0139 µM | – | – | –
10 | AUCAUGUUAGGAUAUACAAGAAAAGAAAAGAAAGAAAAGAAGUAGAAGGAACAUGAGGAUCACCCAUGUAAGAA [EteRNA is fun!] (Eterna round: R96, puzzle: Exclusion 4) | – | – | – | 0.023 µM | – | –
11 | AACAAGCAAGGAUAUACCGGAGGUGUGUCCUCACCUAAGGGACUUGAGGAUCACCCAAGUAGAAGGUGCAACAA [Raxela] (Eterna round: R97, puzzle: Exclusion 2) | – | 0.0415 µM | 0.141 µM | – | – | –
12 | AUAAUGUGAGGAUAUCAGUAAGAAUGCCUCGGCAUUCUUACUGAGAAGGCACAUGAGGAUCACCCAUGUGAUUA [E4/4-B2] (Eterna round: R97, puzzle: Exclusion 4) | – | 0.596 µM | 0.182 µM | – | – | –
13 | AGAGAACAUGAGGAUCACCCAUGUAAGGAUAUGCGAAGAGUUCGGAGAGGUUGAGGAGGCAGAAGGUACAGGAG [JR_Exclu1_Sub042] (puzzle: Exclusion 1) | 0.0314 µM | – | – | – | 0.0305 µM | 0.0331 µM
14 | CUCAGACAUGAGGAUCACCCAUGUGAGGAUAUGAUGCGAUCGUCGAAAGACGAUAGCAUCAGAAGGUACAAAUG [Fiskers Ex 1 - 20] (puzzle: Exclusion 1) | 0.0553 µM | – | – | – | – | –
15 | UCGCAAGCCAUUCCUACUCACAUGAGGAUCACCCAUGUCCUCAGGUUCGUCGUGUCUCUCUGCAAACACUUGCAGAG [Eternabot (L2) Solution 7] (Eterna round: R97, puzzle: Sensor, turn-off variant 1) | – | 0.145 µM | 0.762 µM | – | – | –
16 | CCAAGUUCAUAGGAUAUCAGACGGAUAAAGGUAUGAGAAGGAUGAACAUGAGGAUCACCCAUGUGCACUCCCGA [EX6 B.19] (Eterna round: R97, puzzle: Exclusion 6) | – | 0.0341 µM | 0.0142 µM | – | – | –
17 | GAAAACGCAGAGGAUAUAUCAGAUCAAAGCUGCAUAGAAGGCUGCACAUGAGGAUCACCCAUGUGGUCUUCAAA [jl-ex6-4.01 ViennaUCT mod] (Eterna round: R97, puzzle: Exclusion 6) | – | 0.243 µM | 0.0209 µM | – | – | –
18 | CUAUGAGCUGAGGAUAUCUGCAGGUUGUGCCUGGGAGAAGGCAGCACAUGAGGAUCACCCAUGUGACCGAAAUA [Mod Ex6 A.17 by Nando] (Eterna round: R97, puzzle: Exclusion 6) | – | 0.195 µM | 0.0508 µM | – | – | –

Row | Sequence | apparent KD of MS2 coat protein [1] | apparent KD of MS2 coat protein (input ligand: FMN 200 uM) | apparent KD of MS2 coat protein (input ligand: none) | apparent KD of MS2 coat protein [2] | apparent KD of MS2 coat protein [3] | apparent KD of MS2 coat protein [4]
19 | GUUUUCAGACGGAGAUCCUACAUGAGGAUCACCCAUGUCUCACAAGCUUUUUGCUCGUCUUAUACUCCUCUGUUCUC [Elimod 42 - Jieux - Sensor, turn-off variant 1] (Eterna round: R97, puzzle: Sensor, turn-off variant 1) | – | 0.0835 µM | 0.106 µM | – | – | –
20 | ACAUCACAGCUAGGAUAUAUAUGACAUGAGGAUCACCCAUGUUGUCCCAUGUUGACGAAAACCGAAUAGAAGGAGCUACAGAUG [Ex NG2 #4] (Eterna round: R96, puzzle: Exclusion NG 2) | – | 0.0532 µM | 0.0642 µM | 0.0549 µM | – | –
21 | ACAUGAGGAUCACCCAUGUCAGGCUGGUCCGCUCCGGCUGUUGAGGAUAUAGCCCGGUAUCCGCGCUAGAAGGUGAGGGCCGGC [Aenatbe mod 28] (Eterna round: R96, puzzle: Exclusion NG 3) | – | 0.0248 µM | 0.0284 µM | 0.0263 µM | – | –
22 | CGCCGAGUGUUAGGAUAUCACAAGCAUCAGCGGUGAGAAGGAACAUGAGGAUCACCCAUGUACUGUCCCAUAAGGACAGGUUUC [Geestiza] (Eterna round: R96, puzzle: Exclusion NG 1) | – | 0.0827 µM | 0.0608 µM | 0.0409 µM | – | –
23 | AAAUACAAGCAAAGAUCUUACAUGAGGAUCACCCAUGUGCUCGUCUUGUAAAGUACUAUCACGAAAGUGAUAGUACA [Sensor 3, v1 - 30] (puzzle: Sensor v3, turn-off variant 1) | 0.0988 µM | – | – | – | 0.0231 µM | 0.0204 µM
24 | ACUAGAUGAGGAUAUGCAUAUUUUCGUGUUCUUCUAGAUUAACAUGAGGAUCACCCAUGUAGAAGGCGUCAUUA [Exclusion 2 - 17] (puzzle: Exclusion 2) | 0.0166 µM | – | – | – | – | –
25 | UAUAUGUCAGGAUAUUAGUAGUAAAUAAAUAAAAUUAUUACUGAGAAGGGACAUGAGGAUCACCCAUGUUCCUC [JR_Ex4_Sub001] (Eterna round: R97, puzzle: Exclusion 4) | – | 0.162 µM | 0.0229 µM | – | – | –
26 | CAGUACUGAGGAUAUACAUGAGGAUCACCCAUGUGUCCUAGCUAGGAAACUAGCAAAAGUAGAAGGCAGUACUG [Fiskers Ex 3 828 mod 5] (puzzle: Exclusion 3) | 0.0212 µM | – | – | – | 0.249 µM | 0.0229 µM
27 | GCAUCGUGAGGAUAUACAUGAGGAUCACCCAUGUGGCGGAUCUACCAGCCAGCAAAAUGUAGAAGGCAUUGCUU [Eternabot (L2) Solution 19] (Eterna round: R97, puzzle: Exclusion 3) | – | 0.123 µM | 0.142 µM | – | – | –
28 | AGGUGUAGAGGAUAUCGAGUUCUUUACAUGAGGAUCACCCAUGUCCUGGGCACCCAGGACCGAGAAGGCUACACCA [Omei Ex5 D29] (Eterna round: R97, puzzle: Exclusion 5) | – | 0.0503 µM | 0.0328 µM | – | – | –
29 | UGUCAGAUGGUAGGAUAUCCAUAUCGCGUGUCCCUUUCCUAACAUGAGGAUCACCCAUGUCGGUGGGAGAAGGGCCGUAUGGUG [salish99_ExNG02_R04_035] (Eterna round: R96, puzzle: Exclusion NG 2) | – | – | – | 0.00949 µM | – | –
30 | CUGAGCAGACGGAAAUCCAACAUGAGGAUCACCCAUGUCUCAAAAGCUUUUUGCUCGUCUUAUCCUCCUCUGUUCUC [Tiardia] (puzzle: Sensor v3, turn-off variant 1) | 0.138 µM | – | – | – | 0.0241 µM | 0.0211 µM
31 | UCUAUGAUGCGAGGAUAUCGACCAUUCCUCUUUACAUGAGGAUCACCCAUGUUCGUACGCUACAACGAGAAGGCGCACUAAGAU [JR_ExcNG2_Sub059] (Eterna round: R96, puzzle: Exclusion NG 2) | – | 0.438 µM | 0.194 µM | 0.101 µM | – | –
32 | GUCGUGCGGCUUUGCUGUACGAGUACAUGAGGAUCACCCAUGUAGGAUAUGGCUCGCUUUGCGUGCCAGAAGGGCGUGCGUUGG [Excl-NG3-LRO11] (Eterna round: R96, puzzle: Exclusion NG 3) | – | 0.0432 µM | 0.0336 µM | 0.0256 µM | – | –
33 | UUCCUACAUGAGGAUCACCCAUGUCAGGAUAUCUCCUCGUCGCCAAUGGGCGACGAAUAGAGAAGGGACAGGAA [Rerizaatra] (puzzle: Exclusion 1) | 0.0131 µM | – | – | – | – | –
34 | GAGGAGACAGGAUAUACAUGAGGAUCACCCAUGUGAGGAGGAGGAGAGAGGAGAAGGAGUAGAAGGGUCAGAGA [JR_Exclu3_Sub024] (puzzle: Exclusion 3) | 0.0337 µM | – | – | – | 0.0451 µM | 0.0738 µM
35 | AUAAAUCAUGUAGGAUAUGCGUGGAGAAGCUAUGCAGAAGGACAUGAGGAUCACCCAUGUGCUUCCGUCUGAGUACAGACGGAA [Mat - Exclusion NG 1 - Mod of JL - D37] (Eterna round: R96, puzzle: Exclusion NG 1) | – | 0.129 µM | 0.0865 µM | 0.0994 µM | – | –
